Substrate: Nc1ncnc2c1ncn2[C@@H]1O[C@H](COP(=O)(O)OP(=O)(O)OP(=O)(O)O)[C@@H](O)[C@H]1O
Assay: single-molecule fluorescence (FRET / SNAP649 dwell time), Michaelis-Menten fit of k1 versus ATP
Format: biochemical, Saccharomyces cerevisiae
Details: k1 step: ATP-dependent translocation on nascent RNA to stalled Pol II TEC (bioPol II/RNA-Cy3/DNA or Pol II/RNA-Cy3/bioDNA, 28 bp transcription unit); 10 nM Sen1 HD-SNAP649, 2 nM TFIIS, UTP and CTP, 20; pH 8.0

B1: Sen1 HD-SNAP649 (Sen1 helicase domain) (Saccharomyces cerevisiae S288C) (protein)
chain: AELAKQELEHMRKRLNVDMNPLYEIILQWDYTRNSEYPDDEPIGNYSDVKDFFNSPADYQKVMKPLLLLESWQGLCSSRDREDYKPFSIIVGNRTAVSDFYDVYASVAKQVIQDCGISESDLIVMAYLPDFRPDKRLSSDDFKKAQHTCLAKVRTLKNTKGGNVDVTLRIHRNHSFSKFLTLRSEIYCVKVMQMTTIEREYSTLEGLEYYDLVGQILQAKPSPPVNVDAAEIETVKKSYKLNTSQAEAIVNSVSKEGFSLIQGPPGTGKTKTILGIIGYFLSTKNASSSNVIKVPLEKNSSNTEQLLKKQKILICAPSNAAVDEICLRLKSGVYDKQGHQFKPQLVRVGRSDVVNVAIKDLTLEELVDKRIGERNYEIRTDPELERKFNNAVTKRRELRGKLDSESGNPESPMSTEDISKLQLKIRELSKIINELGRDRDEMREKNSVNYRNRDLDRRNAQAHILAVSDIICSTLSGSAHDVLATMGIKFDTVIIDEACQCTELSSIIPLRYGGKRCIMVGDPNQLPPTVLSGAASNFKYNQSLFVRMEKNSSPYLLDVQYRMHPSISKFPSSEFYQGRLKDGPGMDILNKRPWHQLEPLAPYKFFDIISGRQEQNAKTMSYTNMEEIRVAIELVDYLFRKFDNKIDFTGKIGIISPYREQMQKMRKEFARYFGGMINKSIDFNTIDGFQGQEKEIILISCVRADDTKSSVGFLKDFRRMNVALTRAKTSIWVLGHQRSLAKSKLWRDLIEDAKDRSCLAYACSGFLDPRNNRAQSILRKFNVPVPSEQEDDYKLPMEYITQGPDEVKSN
notes: helicase domain, residues 1095-1904; C-terminal PreScission site, SNAP-tag and 10xHis-tag kept, labelled with SNAP-Surface 649; expressed in E. coli BL21(DE3) codon plus RIPL; single molecule acts
  Km: 40 ± 15 µM

Source: article PMC11180205, “Single-molecule reconstruction of eukaryotic factor-dependent transcription termination” (Nature Communications, 2024)
